Where only a bound is given, the exact number is not on record here.

The source of these data is patent US5217867.

Series [1] relates to hGR G463 463 to Gly (Homo sapiens). Kind of series: pulldown. The note with it: relative to hGR-SB.
In series [2] the test system is hGR G423 423 to Gly (Homo sapiens). The series is described as follows: pulldown. The note with it: relative to hGR-SB.
Series [3] relates to hGR G460 460 to Gly (Homo sapiens). Kind of series: pulldown. The settings on record: relative to hGR-SB.
Series [4] relates to hGR G467 467 to Gly (Homo sapiens). Kind of series: pulldown. The settings on record: relative to hGR-SB; may be unstable in vitro.
Series [5] has as its system hGR G447 447 to Gly (Homo sapiens). The series is described as follows: pulldown. The settings on record: relative to hGR-SB.
In series [6] the test system is hGR G437 437 to Gly (Homo sapiens). Kind of series: pulldown. The settings on record: relative to hGR-SB.
In series [7] the test system is hGR G477 477 to Gly (Homo sapiens). Kind of series: pulldown. The note with it: relative to hGR-SB.
The test system of series [8] is hGR G433 433 to Gly (Homo sapiens). The series is described as follows: pulldown. The note with it: relative to hGR-SB.
The test system of series [9] is hGR G421 421 to Gly (Homo sapiens). The series is described as follows: pulldown. The note with it: relative to hGR-SB.
The subject of series [10] is hGR-SB (human glucocorticoid receptor, wild-type equivalent) (Homo sapiens). The series is described as follows: pulldown. The note with it: immunoprecipitation DNA binding, reference.
Series [11] deals with hGR G431 C431G (Homo sapiens). Kind of series: pulldown. The note with it: relative to hGR-SB.
The subject of series [12] is hGR G453 453 to Gly (Homo sapiens). Kind of series: pulldown. The note with it: relative to hGR-SB.
Series [13] concerns hGR G481 481 to Gly (Homo sapiens). Kind of series: pulldown. The settings on record: relative to hGR-SB.
Series [14] relates to hGR G445 445 to Gly (Homo sapiens). The series is described as follows: pulldown. The note with it: relative to hGR-SB.
In series [15] the test system is hGR G446 446 to Gly (Homo sapiens). Kind of series: pulldown. The note with it: relative to hGR-SB; may be unstable in vitro.
Series [16] concerns hGR G457 457 to Gly (Homo sapiens). The series is described as follows: pulldown. The settings on record: relative to hGR-SB.
The subject of series [17] is hGR G444 444 to Gly (Homo sapiens). The series is described as follows: pulldown. The settings on record: relative to hGR-SB.
Series [18] has as its system hGR delta450-487 deletion between residues 450 and 487 (printed positions are the non-deleted junction residues) (Homo sapiens). Kind of series: pulldown. The settings on record: relative to hGR-SB.
Series [19] relates to hGR G479 479 to Gly (Homo sapiens). The series is described as follows: pulldown. The settings on record: relative to hGR-SB.
For series [20], the system named is hGR G476 476 to Gly (Homo sapiens). Kind of series: pulldown. The settings on record: relative to hGR-SB.
The subject of series [21] is hGR G470 470 to Gly (Homo sapiens). The series is described as follows: pulldown. The settings on record: relative to hGR-SB.
For series [22], the system named is hGR G438 438 to Gly (Homo sapiens). Kind of series: pulldown. The note with it: relative to hGR-SB.
For series [23], the system named is hGR G450 450 to Gly (Homo sapiens). The series is described as follows: pulldown. The settings on record: relative to hGR-SB.
Series [24] relates to hGR G462 462 to Gly (Homo sapiens). Kind of series: pulldown. The settings on record: relative to hGR-SB.
Series [25] deals with hGR G474 474 to Gly (Homo sapiens). The series is described as follows: pulldown. The settings on record: relative to hGR-SB.
Series [26] relates to hGR G473 473 to Gly (Homo sapiens). Kind of series: pulldown. The note with it: relative to hGR-SB.
In series [27] the test system is hGR G424 424 to Gly (Homo sapiens). Kind of series: pulldown. The note with it: relative to hGR-SB.
Series [28] concerns hGR G426 D426G (Homo sapiens). Kind of series: pulldown. The note with it: relative to hGR-SB.
Series [29] relates to hGR G441 441 to Gly (Homo sapiens). Kind of series: pulldown. The note with it: relative to hGR-SB.
Series [30] concerns hGR G455 455 to Gly (Homo sapiens). Kind of series: pulldown. The note with it: relative to hGR-SB; may be unstable in vitro.
The test system of series [31] is hGR G480 480 to Gly (Homo sapiens). Kind of series: pulldown. The settings on record: relative to hGR-SB.
Series [32] relates to hGR G471 471 to Gly (Homo sapiens). Kind of series: pulldown. The settings on record: relative to hGR-SB.
The subject of series [33] is hGR G442 K442G (Homo sapiens). The series is described as follows: pulldown. The note with it: relative to hGR-SB; binds but transcriptionally inactive.
Series [34] deals with hGR delta420-451 deletion between residues 420 and 451 (printed positions are the non-deleted junction residues) (Homo sapiens). Kind of series: pulldown. The settings on record: relative to hGR-SB.
Series [35] deals with hGR G432 432 to Gly (Homo sapiens). Kind of series: pulldown. The settings on record: relative to hGR-SB.
Series [36] deals with hGR G465 465 to Gly (Homo sapiens). The series is described as follows: pulldown. The settings on record: relative to hGR-SB.
In series [37] the test system is hGR G486 486 to Gly (Homo sapiens). Kind of series: pulldown. The settings on record: relative to hGR-SB; may be unstable in vitro (10% activity in cells).
The test system of series [38] is rTRalpha-Bm+ (rat thyroid hormone receptor alpha) BamHI linker at amino acid 21 (Rattus norvegicus), P63059-2. Kind of series: cell_activity. The settings on record: TRE-CAT, T3; which TRE (rGH or palindromic) not stated.
Chain of rTRalpha-Bm+ (rat thyroid hormone receptor alpha) BamHI linker at amino acid 21 (Rattus norvegicus), P63059-2 (P63059 whole entry, looked up, the tested form may be a part): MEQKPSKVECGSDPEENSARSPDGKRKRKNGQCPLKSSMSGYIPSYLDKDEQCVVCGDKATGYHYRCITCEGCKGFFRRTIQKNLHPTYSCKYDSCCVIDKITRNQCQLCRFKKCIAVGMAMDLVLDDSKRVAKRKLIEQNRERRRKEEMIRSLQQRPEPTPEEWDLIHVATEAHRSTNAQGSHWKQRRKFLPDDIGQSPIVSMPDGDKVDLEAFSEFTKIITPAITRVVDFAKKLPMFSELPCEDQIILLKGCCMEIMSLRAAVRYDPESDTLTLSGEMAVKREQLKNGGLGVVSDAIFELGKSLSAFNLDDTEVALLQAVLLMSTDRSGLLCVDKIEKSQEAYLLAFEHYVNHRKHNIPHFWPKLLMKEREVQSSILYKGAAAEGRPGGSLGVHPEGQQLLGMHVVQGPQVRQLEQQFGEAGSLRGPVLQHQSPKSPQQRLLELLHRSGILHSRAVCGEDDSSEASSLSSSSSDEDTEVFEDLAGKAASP
Series [39] deals with G-gal-G (hGR with DNA binding domain replaced by GAL4 1-74) (Homo sapiens / Saccharomyces cerevisiae) (UniProt P04150+P04386). The series is described as follows: cell_activity.
Chain of G-gal-G (hGR with DNA binding domain replaced by GAL4 1-74) (Homo sapiens / Saccharomyces cerevisiae) (P04150 other isoform, or with tags, fused parts or gaps, chain 1 of 2): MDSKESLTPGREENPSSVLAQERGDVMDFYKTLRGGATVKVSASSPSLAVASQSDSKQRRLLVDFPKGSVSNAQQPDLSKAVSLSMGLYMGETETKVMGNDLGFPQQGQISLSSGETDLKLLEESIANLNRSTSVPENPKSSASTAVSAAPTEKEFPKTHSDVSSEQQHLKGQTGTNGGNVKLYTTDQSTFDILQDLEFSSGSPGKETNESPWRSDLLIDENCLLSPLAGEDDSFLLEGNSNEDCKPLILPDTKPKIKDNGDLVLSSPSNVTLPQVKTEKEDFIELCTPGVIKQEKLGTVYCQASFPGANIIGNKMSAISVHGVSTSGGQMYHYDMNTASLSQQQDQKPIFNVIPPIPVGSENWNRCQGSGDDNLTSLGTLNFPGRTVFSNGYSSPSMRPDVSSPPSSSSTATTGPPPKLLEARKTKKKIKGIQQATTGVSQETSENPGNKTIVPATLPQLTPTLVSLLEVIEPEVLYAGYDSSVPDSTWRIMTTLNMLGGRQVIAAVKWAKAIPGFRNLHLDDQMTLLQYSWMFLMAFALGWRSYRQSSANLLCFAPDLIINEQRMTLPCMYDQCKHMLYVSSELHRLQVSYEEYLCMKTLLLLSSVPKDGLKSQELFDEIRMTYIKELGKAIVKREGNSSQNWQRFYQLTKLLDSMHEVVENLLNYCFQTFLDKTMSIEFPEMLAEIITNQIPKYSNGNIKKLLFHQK
Chain of G-gal-G (hGR with DNA binding domain replaced by GAL4 1-74) (Homo sapiens / Saccharomyces cerevisiae) (P04386 1-74, chain 2 of 2): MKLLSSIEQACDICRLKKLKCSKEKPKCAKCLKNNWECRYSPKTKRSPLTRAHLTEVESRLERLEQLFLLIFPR
The target in series [40] is GAL4 (Saccharomyces cerevisiae) (UniProt P04386). Kind of series: cell_activity. The note with it: CAT reporter.
Chain of GAL4 (Saccharomyces cerevisiae) (P04386 whole entry, the tested form may be a part): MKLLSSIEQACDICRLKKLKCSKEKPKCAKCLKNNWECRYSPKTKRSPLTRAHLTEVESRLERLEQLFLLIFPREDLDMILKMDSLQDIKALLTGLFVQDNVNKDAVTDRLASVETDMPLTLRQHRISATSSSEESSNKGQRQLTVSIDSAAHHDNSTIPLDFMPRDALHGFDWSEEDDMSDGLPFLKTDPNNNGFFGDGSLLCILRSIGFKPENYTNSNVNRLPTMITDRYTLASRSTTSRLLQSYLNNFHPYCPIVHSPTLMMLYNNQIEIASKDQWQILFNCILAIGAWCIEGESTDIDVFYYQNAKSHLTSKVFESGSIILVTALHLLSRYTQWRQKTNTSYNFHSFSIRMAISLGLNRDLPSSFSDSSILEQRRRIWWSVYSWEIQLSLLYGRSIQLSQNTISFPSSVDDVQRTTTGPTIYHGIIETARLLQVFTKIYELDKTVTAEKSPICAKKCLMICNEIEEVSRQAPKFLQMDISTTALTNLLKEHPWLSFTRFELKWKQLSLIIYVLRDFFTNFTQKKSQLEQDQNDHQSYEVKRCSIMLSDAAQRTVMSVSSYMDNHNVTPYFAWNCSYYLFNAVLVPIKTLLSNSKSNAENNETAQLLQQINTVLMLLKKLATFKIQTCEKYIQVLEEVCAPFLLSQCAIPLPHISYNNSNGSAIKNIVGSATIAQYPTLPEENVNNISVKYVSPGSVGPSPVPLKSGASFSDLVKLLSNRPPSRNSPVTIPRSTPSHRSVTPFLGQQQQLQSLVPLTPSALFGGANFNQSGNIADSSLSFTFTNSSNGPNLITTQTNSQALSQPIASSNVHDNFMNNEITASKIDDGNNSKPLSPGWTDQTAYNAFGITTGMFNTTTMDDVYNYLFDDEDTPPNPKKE

Take GRE-containing DNA fragment: the binding signal was 1% in [1]; less than 1% in series [2]; 90% in series [3]; 6% in series [4]; 2% in series [5]; 8% in series [6]. Also, the binding signal in [7] was 1%; in [8], 1%; in series [9] it was less than 1%; in series [10], 100%; in [11], 10%; in series [12], 60%. Moreover, the binding signal was 3% in series [13]; less than 1% in [14]; 6% in series [15]; 2% in series [16]; 1% in series [17]; 1% in [18]. Further, the binding signal was 40% in series [19]; less than 1% in [20]; 4% in series [21]; less than 1% in series [22]; 50% in series [23]; 40% in [24]. Further, the binding signal is 95% in series [25]; less than 1% in series [26]; 1% in series [27]; 75% in [28]; less than 1% in series [29]; 6% in [30]. In addition, the binding signal came out at 50% in series [31]; 6% in series [32]; 60% in series [33]; 1% in series [34]; 30% in series [35]; 1% in series [36]. The substance also came in with a binding signal in [37] of 1%.
With “TCAGGTCATGACCTGA (double strand) [TRE of TRE-CAT reporter (palindromic TRE)]”, the activity in [38] was 100%.
Consider “deltaMTV-CAT promoter (no GAL4 site, GREs deleted)”, for which the activity in series [39] (relative to deltaMTV-GAL-CAT, possible cryptic site) came to 5%.
Take “deltaMTV-GAL-CAT promoter with synthetic GAL4 site 17MX”: the figures for the activity in [40] and in [39] (with hormone) were 20 fold and 500 fold, respectively.
